The values below come from patent US7202329B2, “Tsg101-GAGp6 interaction and use thereof” (priority 2001, dated 2007).

Data set [1] concerns the target ROCK1 (Homo sapiens, UniProt Q13464). To be noted: cited from earlier work.
Data set [2] deals with T1, Tsg101 (Homo sapiens, UniProt Q99816).
T1 construct: expressed in transfected cells; host or cells: Saccharomyces cerevisiae strain Y189
T1 sequence (Q99816 1-390): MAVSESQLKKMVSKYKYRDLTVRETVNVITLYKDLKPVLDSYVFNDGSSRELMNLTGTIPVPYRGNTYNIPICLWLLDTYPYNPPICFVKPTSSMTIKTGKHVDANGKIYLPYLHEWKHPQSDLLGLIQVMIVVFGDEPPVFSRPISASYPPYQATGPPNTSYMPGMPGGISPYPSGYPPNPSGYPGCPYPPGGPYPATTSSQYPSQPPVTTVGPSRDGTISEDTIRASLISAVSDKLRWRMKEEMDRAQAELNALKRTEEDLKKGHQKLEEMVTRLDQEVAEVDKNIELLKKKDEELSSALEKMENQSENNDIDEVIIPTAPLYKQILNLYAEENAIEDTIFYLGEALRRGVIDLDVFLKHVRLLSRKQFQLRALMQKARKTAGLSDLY
As to the kind of experiment: Yeast two-hybrid filter lift assay for β-Gal activity (Tsg101 / GAGp6 interaction). Also on record: key to Interactions Between Tsg101 and GAGp6 (β-Gal activity, filter lift): +: Positive β-Gal activity indicates that the GAGp6 wild type or mutant protein interacts with Tsg101. Conditions: for ability to bind Tsg101 protein (in words): yeast two-hybrid, GAGp6 point mutants. It counts as cell-based. From the text: Yeast two-hybrid assays were utilized to determine the effect of amino acid substitution mutations in the PTAP motif of HIV GAGp6 on the interaction between Tsg101 and GAGp6. To prepare a yeast two-hybrid activation domain-Tsg101 construct, a DNA fragment encompassing the full-length coding sequence for Tsg101 according to GenBank Accession No. U82130 was obtained by PCR from a human fetal brain cDNA library and cloned into the EcoRI/Pst1 sites of the activation domain parent plasmid GADpN2 (LEU2, CEN4, ARS1, ADH1p-SV40NLS-GAL4 (768–881)-MCS (multiple cloning site)-PGK1t, AmpR, ColE1_ori).
To prepare the yeast two-hybrid DNA binding domain-HIV1 GAGp6 construct, a DNA fragment corresponding to the HIV1 GAGp6 peptide derived from the HIV1.NL43 strain GAG protein was obtained by PCR from the NL43 containing plasmid R9≢apa and was cloned into the EcoRI/Sal1 sites of the binding domain parent plasmid pGBT.Q.
The following amino acid substitution mutations were introduced by PCR into the HIV1 GAGp6 sequence in the yeast two-hybrid binding domain-HIV1 GAGp6 construct described above. The mutations were verified by DNA sequence analysis.
To test the effect of the mutations, yeast cells of the strain Y189 purchased from Clontech (ura3-52 his3*200 ade2-101 trp1-901 leu2-3,112 met gal4 gal80 URA3::GAL1p-lacZ) were co-transformed with the activation domain-Tsg101 construct and one of the binding domain-mutant GAGp6 constructs or the binding domain-wild type GAGp6 construct. Filter lift assays for β-Gal activity were conducted by lifting the transformed yeast colonies with filters, lysing the yeast cells by freezing and thawing, and contacting the lysed cells with X-Gal. […] All binding domain constructs were also tested for self-activation of β-Gal activity.

Data set [3] concerns the target T2, Full length Tsg101 (Homo sapiens, UniProt Q99816).
T2 construct: expressed in transfected cells; host or cells: Saccharomyces cerevisiae strain Y189
T2 sequence (Q99816 1-390): T1 sequence (Q99816 1-390)
As to the kind of experiment: Two-hybrid liquid culture β-galactosidase assay. It counts as cell-based. To be noted: p6 point mutants. On the procedure:
The interactions between Tsg101 and wild-type GAGp6 (WT) or the GAGp6 PTAP mutants were further quantitated by performing liquid culture β-galactosidase assays. Cultures were grown overnight in synthetic media (−Leu, −Trp, +glucose) in 96 well plates, normalized for optical density, and lysed by addition of 6× lysis/substrate solution in 6× Z-buffer (60 mM KCl, 6 mM MgSO4, 360 mM Na2HPO4, 240 mM NaH2PO4, 6 mg/ml CPRG, 0.12U/ml lyticase, 0.075% NP-40). Cultures were incubated for 2 hr at 37° C., clarified by centrifugation, and the optical absorbance of each supernatant was measured (575 nm). Full length Tsg101 bound wild-type p6 in the two-hybrid liquid culture assay, resulting in high levels of β-galactosidase activity (>300-fold over background). […] Each of these point mutations also arrests HIV-1 budding at a late stage (Huang et al. 1995).

The target in data set [4] is T3, interaction between GST-p6 and myc-Tsg101(1-207) (Homo sapiens, UniProt Q99816).
T3 construct: Drosophila S2 cell lysate myc-tagged Tsg101 (residues 1–207); made in house; host or cells: Drosophila S2 cells (used as lysate)
T3 sequence (Q99816 1-207): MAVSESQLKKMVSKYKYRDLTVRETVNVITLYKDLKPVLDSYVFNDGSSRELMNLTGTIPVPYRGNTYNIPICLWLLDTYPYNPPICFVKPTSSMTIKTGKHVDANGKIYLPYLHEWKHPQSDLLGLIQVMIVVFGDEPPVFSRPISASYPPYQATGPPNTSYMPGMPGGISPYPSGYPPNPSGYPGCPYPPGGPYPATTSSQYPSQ
As to the kind of experiment: In vitro binding assay: competition of p6(1-14) with GST-p6 for myc-Tsg101(1-207). On the procedure: A fusion protein with a GST tag fused to the HIV-1 GAGp6 domain was recombinantly expressed and purified by chromatography. In addition, a GAGp6 peptide containing the first 14 amino acid residues (“p6(1–14)”) was synthesized chemically by standard peptide synthesis methods. The peptide was purified by conventional protein purification techniques, e.g., by chromatography.
Nunc/Nalgene Maxisorp plates were incubated overnight at 4° C. or for 1–2 hrs at room temperature in 100 μl of a protein coupling solution containing purified GST-p6 and 50 mM Carbonate, pH=9.6. This allowed the attachment of the GST-p6 fusion protein to the plates. Liquids in the plates were then emptied and wells filled with 400 μl/well of a blocking buffer (SuperBlock; Pierce-Endogen, Rockford, Ill.). […]
Plates were then washed 4×100 μl with 1× PBST solution (Invitrogen; Carlsbad, Calif.). […] Plates were then read on a Packard Fusion instrument at an excitation wavelength of 325 nm and an emission wavelength of 420 nm. […]
Different concentrations of the p6(1–14) peptide were tested, and the relative intensities of the fluorescence signals obtained at different concentrations were plotted against the peptide concentrations. […]

Chain of ROCK1 (Q13464 whole entry): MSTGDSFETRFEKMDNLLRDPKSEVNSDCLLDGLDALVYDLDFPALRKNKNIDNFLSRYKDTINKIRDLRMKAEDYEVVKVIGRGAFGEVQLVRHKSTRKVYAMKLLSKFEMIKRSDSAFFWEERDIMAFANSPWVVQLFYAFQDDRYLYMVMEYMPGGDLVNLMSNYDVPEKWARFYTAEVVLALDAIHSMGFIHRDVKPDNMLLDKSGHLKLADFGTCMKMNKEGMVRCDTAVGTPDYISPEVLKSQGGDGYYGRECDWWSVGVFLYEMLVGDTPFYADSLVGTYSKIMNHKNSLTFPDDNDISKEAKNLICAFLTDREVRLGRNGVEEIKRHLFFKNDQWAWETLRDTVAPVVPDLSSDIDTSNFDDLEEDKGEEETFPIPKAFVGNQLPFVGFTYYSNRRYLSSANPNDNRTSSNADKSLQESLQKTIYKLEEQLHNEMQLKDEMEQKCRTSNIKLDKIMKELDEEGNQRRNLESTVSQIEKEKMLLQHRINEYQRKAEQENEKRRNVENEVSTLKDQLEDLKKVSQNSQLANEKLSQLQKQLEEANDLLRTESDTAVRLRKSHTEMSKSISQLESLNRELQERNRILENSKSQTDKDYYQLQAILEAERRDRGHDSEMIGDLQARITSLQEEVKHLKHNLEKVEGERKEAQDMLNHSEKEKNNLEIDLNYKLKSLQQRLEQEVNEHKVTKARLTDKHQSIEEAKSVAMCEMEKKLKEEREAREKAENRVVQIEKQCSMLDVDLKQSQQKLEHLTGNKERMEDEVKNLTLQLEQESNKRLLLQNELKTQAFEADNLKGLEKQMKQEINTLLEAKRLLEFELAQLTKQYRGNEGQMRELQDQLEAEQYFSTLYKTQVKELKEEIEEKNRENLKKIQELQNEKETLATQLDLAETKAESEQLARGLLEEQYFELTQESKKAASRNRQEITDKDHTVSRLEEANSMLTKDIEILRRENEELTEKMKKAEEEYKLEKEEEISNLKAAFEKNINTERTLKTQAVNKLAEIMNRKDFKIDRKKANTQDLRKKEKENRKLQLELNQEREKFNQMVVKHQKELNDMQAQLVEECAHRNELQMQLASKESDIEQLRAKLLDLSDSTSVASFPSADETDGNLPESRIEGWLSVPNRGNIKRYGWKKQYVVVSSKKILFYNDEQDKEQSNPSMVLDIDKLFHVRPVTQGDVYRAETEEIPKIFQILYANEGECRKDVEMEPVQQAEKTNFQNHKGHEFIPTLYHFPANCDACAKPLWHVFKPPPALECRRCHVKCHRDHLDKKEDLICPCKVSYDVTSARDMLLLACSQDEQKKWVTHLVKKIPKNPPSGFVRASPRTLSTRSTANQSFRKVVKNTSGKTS

As for `C[C@@H](N)[C@H]1CC[C@H](C(=O)Nc2ccncc2)CC1` [Y-27632, (+)-(R)-trans-4-(1-aminoethyl)-N-(4-pyridyl) cyclohexanecarboxamide], in data set [1], the “selectivity for ROCK1” value is reported as “highly selective for ROCK1”.

For “P6/A9R (LQSRPEPTRPPEESFRFGEETTTPSQKQEPIDKELYPLASLRSLFGSDPSSQ; left off: large carriers; small tags and cut ends)”, the “ability to bind Tsg101 protein (in words)” value (shortened to “ability”) in data set [2] is “abolishes the GAGp6 binding affinity to Tsg101”. Moreover, the “β-galactosidase activity (in words)” value in data set [3] is on record as “reduced β-galactosidase activity to background levels”.

For “P6/E6G (LQSRPGPTAPPEESFRFGEETTTPSQKQEPIDKELYPLASLRSLFGSDPSSQ; left off: large carriers; small tags and cut ends)”, the “Interactions Between Tsg101 and GAGp6 (β-Gal activity, filter lift)” value in data set [2] (yeast strain Y189 co-transformed with activation domain-Tsg101 construct and binding domain-GAGp6 construct) is reported as “+”. Moreover, the “ability” value is “did not result in the elimination of the Tsg101-GAGp6 interaction” in data set [2] and “capable of binding Tsg101 protein” in data set [2] (listed as E6G GAGp6 mutant).

For “P6/P7L (LQSRPELTAPPEESFRFGEETTTPSQKQEPIDKELYPLASLRSLFGSDPSSQ; left off: large carriers; small tags and cut ends)”, the “ability” value in data set [2] is listed as “abolishes the GAGp6 binding affinity to Tsg101”. For the same compound, the “β-galactosidase activity (in words)” value in data set [3] is “reduced β-galactosidase activity to background levels”.

In the case of “P6/P10L (LQSRPEPTALPEESFRFGEETTTPSQKQEPIDKELYPLASLRSLFGSDPSSQ; left off: large carriers; small tags and cut ends)”, the “ability” value in data set [2] is given as “abolishes the GAGp6 binding affinity to Tsg101”. For the same compound, in data set [3], the “β-galactosidase activity (in words)” value is reported as “reduced β-galactosidase activity to background levels”.

Consider “p6(1-14): chemically synthesized GAGp6 peptide containing the first 14 amino acid residues, includes the PTAP late domain motif (LQSRPEPTAPPEES)”, for which, in data set [4] (competitive inhibition curve, FIG. 2), the “inhibition of protein-protein interaction between GST-p6 and myc-Tsg101(1-207)” value is “capable of inhibiting”. The “binding to the N-terminal portion of Tsg101 (amino acid residues 1–207)” value in data set [4] (includes the Tsg101 UEV domain) is on record as “sufficient in binding”.
